Drawing on patent publication US20210346432A1, this text covers A450 for 1 molecule.

One test deals with T1, ET140-p26 (human).
T1 sequence (peptide, N-terminal biotin): SGSGRCSSNTPPLTCQRYC
Nature of the test: peptide ELISA on streptavidin plate, antibody 1 ug/mL. For orientation: ELISA stands for enzyme-linked immunosorbent assay.

The next test has as its target T2, ET140-p25 (human).
T2 sequence (peptide, N-terminal biotin): SGSGLRCSSNTPPLTCQRY
The description is as above.

B1: ET140-153 mIgG1 (antibody, V domains shown)
VH: QVQLVQSGAEVKKPGSSVKVSCKASGGTFSSYAISWVRQAPGQGLEWMGRIIPILGIANYAQKFQGRVTITADKSTSTAYMELSSLRSEDTAVYYCARGGYYSHDMWSEDWGQGTLVTVSS
VL: LPVLTQPPSASGTPGQRVTISCSGRSSNIGSNSVNWYRQLPGAAPKLLIYSNNQRPPGVPVRFSGSKSGTSASLAISGLQSEDEATYYCATWDDNLNVHYVFGTGTKVTVLG
For B1, the A450 in the test with ET140-p26 (human) was 0.225; with ET140-p25 (human), 0.583.
